The source of these data is US20170145090A1.

For this experiment, the target named is Human OSM (in-house, OSMN1-1) (human) (UniProt P13725). The experiment can be described thus: cell-based or functional assay.
Chain of Human OSM (in-house, OSMN1-1) (human) (P13725 26-221 limits assumed): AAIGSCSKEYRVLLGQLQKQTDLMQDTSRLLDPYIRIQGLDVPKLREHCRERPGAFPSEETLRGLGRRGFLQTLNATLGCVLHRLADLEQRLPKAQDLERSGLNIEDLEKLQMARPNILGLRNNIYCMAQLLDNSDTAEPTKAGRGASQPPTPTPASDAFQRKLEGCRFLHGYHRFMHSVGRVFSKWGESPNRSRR

For the substance MAB295 (R&D Systems) (antibody), the pSTAT3 inhibition EC50 (ng/ml), A375 cells, 5 ng/ml hOSM came to 72.1 ng/ml.
